Source: patent publication US20120270784A1 (THERATECHNOLOGIES, published 2012)
Where no end group is shown, it is not given here.

T1: human GRF receptor (human, UniProt Q02643 23-423)
T1 sequence (looked up): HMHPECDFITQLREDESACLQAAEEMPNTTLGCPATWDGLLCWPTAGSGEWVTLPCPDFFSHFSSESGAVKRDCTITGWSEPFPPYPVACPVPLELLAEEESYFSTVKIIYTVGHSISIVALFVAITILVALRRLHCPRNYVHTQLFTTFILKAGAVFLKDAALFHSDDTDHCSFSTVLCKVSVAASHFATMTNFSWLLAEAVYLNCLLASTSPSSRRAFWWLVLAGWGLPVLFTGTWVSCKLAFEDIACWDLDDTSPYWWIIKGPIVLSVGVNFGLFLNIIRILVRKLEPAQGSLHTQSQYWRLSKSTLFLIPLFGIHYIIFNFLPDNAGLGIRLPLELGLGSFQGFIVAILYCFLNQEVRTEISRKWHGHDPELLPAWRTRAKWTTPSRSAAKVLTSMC


Target: T1, human GRF receptor
Test: cell-based or functional assay

EC50 as assessed by alkaline phosphatase (AP) induction [nM] | Binder
0.08 | YXDAIFTDSYRKVLAQLKLRQDILARAARAAR (HELM PEPTIDE1{Y.[dA].D.A.I.F.T.D.S.Y.R.K.V.L.A.Q.L.K.L.R.Q.D.I.L.A.R.A.A.R.A.A.R.[am]}$$$$V2.0; N-terminus assumed; SMILES CC[C@H](C)[C@H](NC(=O)[C@H](C)NC(=O)[C@H](CC(=O)O)NC(=O)[C@@H](C)NC(=O)[C@@H](N)Cc1ccc(O)cc1)C(=O)N[C@@H](Cc1ccccc1)C(=O)N[C@H](C(=O)N[C@@H](CC(=O)O)C(=O)N[C@@H](CO)C(=O)N[C@@H](Cc1ccc(O)cc1)C(=O)N[C@@H](CCCNC(=N)N)C(=O)N[C@@H](CCCCN)C(=O)N[C@H](C(=O)N[C@@H](CC(C)C)C(=O)N[C@@H](C)C(=O)N[C@@H](CCC(N)=O)C(=O)N[C@@H](CC(C)C)C(=O)N[C@@H](CCCCN)C(=O)N[C@@H](CC(C)C)C(=O)N[C@@H](CCCNC(=N)N)C(=O)N[C@@H](CCC(N)=O)C(=O)N[C@@H](CC(=O)O)C(=O)N[C@H](C(=O)N[C@@H](CC(C)C)C(=O)N[C@@H](C)C(=O)N[C@@H](CCCNC(=N)N)C(=O)N[C@@H](C)C(=O)N[C@@H](C)C(=O)N[C@@H](CCCNC(=N)N)C(=O)N[C@@H](C)C(=O)N[C@@H](C)C(=O)N[C@@H](CCCNC(=N)N)C(N)=O)[C@@H](C)CC)C(C)C)[C@@H](C)O) [Y-a-DAIFTDSYRKVLAQLKLRQDILARAARAAR-NH2 (SEQ ID NO: 29)]
0.18 | YXDAIFTDSYRKVLAQLKARQDLLARAARAAR (HELM PEPTIDE1{Y.[dA].D.A.I.F.T.D.S.Y.R.K.V.L.A.Q.L.K.A.R.Q.D.L.L.A.R.A.A.R.A.A.R.[am]}$$$$V2.0; N-terminus assumed; SMILES CC[C@H](C)[C@H](NC(=O)[C@H](C)NC(=O)[C@H](CC(=O)O)NC(=O)[C@@H](C)NC(=O)[C@@H](N)Cc1ccc(O)cc1)C(=O)N[C@@H](Cc1ccccc1)C(=O)N[C@H](C(=O)N[C@@H](CC(=O)O)C(=O)N[C@@H](CO)C(=O)N[C@@H](Cc1ccc(O)cc1)C(=O)N[C@@H](CCCNC(=N)N)C(=O)N[C@@H](CCCCN)C(=O)N[C@H](C(=O)N[C@@H](CC(C)C)C(=O)N[C@@H](C)C(=O)N[C@@H](CCC(N)=O)C(=O)N[C@@H](CC(C)C)C(=O)N[C@@H](CCCCN)C(=O)N[C@@H](C)C(=O)N[C@@H](CCCNC(=N)N)C(=O)N[C@@H](CCC(N)=O)C(=O)N[C@@H](CC(=O)O)C(=O)N[C@@H](CC(C)C)C(=O)N[C@@H](CC(C)C)C(=O)N[C@@H](C)C(=O)N[C@@H](CCCNC(=N)N)C(=O)N[C@@H](C)C(=O)N[C@@H](C)C(=O)N[C@@H](CCCNC(=N)N)C(=O)N[C@@H](C)C(=O)N[C@@H](C)C(=O)N[C@@H](CCCNC(=N)N)C(N)=O)C(C)C)[C@@H](C)O) [Y-a-DAIFTDSYRKVLAQLKARQDLLARAARAAR-NH2 (SEQ ID NO: 30)]
0.11 | YXDAIFTDSYRKVLAQLKARQDILARAARAAR (HELM PEPTIDE1{Y.[dA].D.A.I.F.T.D.S.Y.R.K.V.L.A.Q.L.K.A.R.Q.D.I.L.A.R.A.A.R.A.A.R.[am]}$$$$V2.0; N-terminus assumed; SMILES CC[C@H](C)[C@H](NC(=O)[C@H](C)NC(=O)[C@H](CC(=O)O)NC(=O)[C@@H](C)NC(=O)[C@@H](N)Cc1ccc(O)cc1)C(=O)N[C@@H](Cc1ccccc1)C(=O)N[C@H](C(=O)N[C@@H](CC(=O)O)C(=O)N[C@@H](CO)C(=O)N[C@@H](Cc1ccc(O)cc1)C(=O)N[C@@H](CCCNC(=N)N)C(=O)N[C@@H](CCCCN)C(=O)N[C@H](C(=O)N[C@@H](CC(C)C)C(=O)N[C@@H](C)C(=O)N[C@@H](CCC(N)=O)C(=O)N[C@@H](CC(C)C)C(=O)N[C@@H](CCCCN)C(=O)N[C@@H](C)C(=O)N[C@@H](CCCNC(=N)N)C(=O)N[C@@H](CCC(N)=O)C(=O)N[C@@H](CC(=O)O)C(=O)N[C@H](C(=O)N[C@@H](CC(C)C)C(=O)N[C@@H](C)C(=O)N[C@@H](CCCNC(=N)N)C(=O)N[C@@H](C)C(=O)N[C@@H](C)C(=O)N[C@@H](CCCNC(=N)N)C(=O)N[C@@H](C)C(=O)N[C@@H](C)C(=O)N[C@@H](CCCNC(=N)N)C(N)=O)[C@@H](C)CC)C(C)C)[C@@H](C)O) [Y-a-DAIFTDSYRKVLAQLKARQDILARAARAAR-NH2 (SEQ ID NO: 28)]

Second part, the binder before the results:

Binder | EC50 as assessed by alkaline phosphatase (AP) induction [nM]
YSDAIFTDSYRKVLAQLKARQDILARAARAAR-NH2 [YSDAIFTDSYRKVLAQLKARQDILARAARAAR-NH2 (SEQ ID NO: 33)] | 0.25
YADAIFTDSYRKVLAQLSARQDILARAARAAR (HELM PEPTIDE1{[CC/C=C/CC(=O)[*:2]].Y.A.D.A.I.F.T.D.S.Y.R.K.V.L.A.Q.L.S.A.R.Q.D.I.L.A.R.A.A.R.A.A.R.[am]}$$$$V2.0; SMILES CC/C=C/CC(=O)N[C@@H](Cc1ccc(O)cc1)C(=O)N[C@@H](C)C(=O)N[C@@H](CC(=O)O)C(=O)N[C@@H](C)C(=O)N[C@H](C(=O)N[C@@H](Cc1ccccc1)C(=O)N[C@H](C(=O)N[C@@H](CC(=O)O)C(=O)N[C@@H](CO)C(=O)N[C@@H](Cc1ccc(O)cc1)C(=O)N[C@@H](CCCNC(=N)N)C(=O)N[C@@H](CCCCN)C(=O)N[C@H](C(=O)N[C@@H](CC(C)C)C(=O)N[C@@H](C)C(=O)N[C@@H](CCC(N)=O)C(=O)N[C@@H](CC(C)C)C(=O)N[C@@H](CO)C(=O)N[C@@H](C)C(=O)N[C@@H](CCCNC(=N)N)C(=O)N[C@@H](CCC(N)=O)C(=O)N[C@@H](CC(=O)O)C(=O)N[C@H](C(=O)N[C@@H](CC(C)C)C(=O)N[C@@H](C)C(=O)N[C@@H](CCCNC(=N)N)C(=O)N[C@@H](C)C(=O)N[C@@H](C)C(=O)N[C@@H](CCCNC(=N)N)C(=O)N[C@@H](C)C(=O)N[C@@H](C)C(=O)N[C@@H](CCCNC(=N)N)C(N)=O)[C@@H](C)CC)C(C)C)[C@@H](C)O)[C@@H](C)CC) [Trans-3-hexenoyl-YADAIFTDSYRKVLAQLSARQDILARAARAAR-NH2 (SEQ ID NO: 27)] | 0.19
YADAIFTDSYRKVLAQLKARQDLLARAARAAR (HELM PEPTIDE1{[CC/C=C/CC(=O)[*:2]].Y.A.D.A.I.F.T.D.S.Y.R.K.V.L.A.Q.L.K.A.R.Q.D.L.L.A.R.A.A.R.A.A.R.[am]}$$$$V2.0; SMILES CC/C=C/CC(=O)N[C@@H](Cc1ccc(O)cc1)C(=O)N[C@@H](C)C(=O)N[C@@H](CC(=O)O)C(=O)N[C@@H](C)C(=O)N[C@H](C(=O)N[C@@H](Cc1ccccc1)C(=O)N[C@H](C(=O)N[C@@H](CC(=O)O)C(=O)N[C@@H](CO)C(=O)N[C@@H](Cc1ccc(O)cc1)C(=O)N[C@@H](CCCNC(=N)N)C(=O)N[C@@H](CCCCN)C(=O)N[C@H](C(=O)N[C@@H](CC(C)C)C(=O)N[C@@H](C)C(=O)N[C@@H](CCC(N)=O)C(=O)N[C@@H](CC(C)C)C(=O)N[C@@H](CCCCN)C(=O)N[C@@H](C)C(=O)N[C@@H](CCCNC(=N)N)C(=O)N[C@@H](CCC(N)=O)C(=O)N[C@@H](CC(=O)O)C(=O)N[C@@H](CC(C)C)C(=O)N[C@@H](CC(C)C)C(=O)N[C@@H](C)C(=O)N[C@@H](CCCNC(=N)N)C(=O)N[C@@H](C)C(=O)N[C@@H](C)C(=O)N[C@@H](CCCNC(=N)N)C(=O)N[C@@H](C)C(=O)N[C@@H](C)C(=O)N[C@@H](CCCNC(=N)N)C(N)=O)C(C)C)[C@@H](C)O)[C@@H](C)CC) [Trans-3-hexenoyl-YADAIFTDSYRKVLAQLKARQDLLARAARAAR-NH2 (SEQ ID NO: 32)] | 0.11
YADAIFTDSYRKVLAQLKARQDILARAARAAR (HELM PEPTIDE1{[CC/C=C/CC(=O)[*:2]].Y.A.D.A.I.F.T.D.S.Y.R.K.V.L.A.Q.L.K.A.R.Q.D.I.L.A.R.A.A.R.A.A.R.[am]}$$$$V2.0; SMILES CC/C=C/CC(=O)N[C@@H](Cc1ccc(O)cc1)C(=O)N[C@@H](C)C(=O)N[C@@H](CC(=O)O)C(=O)N[C@@H](C)C(=O)N[C@H](C(=O)N[C@@H](Cc1ccccc1)C(=O)N[C@H](C(=O)N[C@@H](CC(=O)O)C(=O)N[C@@H](CO)C(=O)N[C@@H](Cc1ccc(O)cc1)C(=O)N[C@@H](CCCNC(=N)N)C(=O)N[C@@H](CCCCN)C(=O)N[C@H](C(=O)N[C@@H](CC(C)C)C(=O)N[C@@H](C)C(=O)N[C@@H](CCC(N)=O)C(=O)N[C@@H](CC(C)C)C(=O)N[C@@H](CCCCN)C(=O)N[C@@H](C)C(=O)N[C@@H](CCCNC(=N)N)C(=O)N[C@@H](CCC(N)=O)C(=O)N[C@@H](CC(=O)O)C(=O)N[C@H](C(=O)N[C@@H](CC(C)C)C(=O)N[C@@H](C)C(=O)N[C@@H](CCCNC(=N)N)C(=O)N[C@@H](C)C(=O)N[C@@H](C)C(=O)N[C@@H](CCCNC(=N)N)C(=O)N[C@@H](C)C(=O)N[C@@H](C)C(=O)N[C@@H](CCCNC(=N)N)C(N)=O)[C@@H](C)CC)C(C)C)[C@@H](C)O)[C@@H](C)CC) [Trans-3-hexenoyl-YADAIFTDSYRKVLAQLKARQDILARAARAAR-NH2 (SEQ ID NO: 31)] | 0.1
Ac-YADAIFTDSYRKVLAQLSARKLLQDILSR-NH2 [Ac-YADAIFTDSYRKVLAQLSARKLLQDILSR-NH2 (SEQ ID NO: 43)] | 0.25
YADAIFTDSYRKVLAQLKARQDILARAAR (HELM PEPTIDE1{[CC/C=C/CC(=O)[*:2]].Y.A.D.A.I.F.T.D.S.Y.R.K.V.L.A.Q.L.K.A.R.Q.D.I.L.A.R.A.A.R.[am]}$$$$V2.0; SMILES CC/C=C/CC(=O)N[C@@H](Cc1ccc(O)cc1)C(=O)N[C@@H](C)C(=O)N[C@@H](CC(=O)O)C(=O)N[C@@H](C)C(=O)N[C@H](C(=O)N[C@@H](Cc1ccccc1)C(=O)N[C@H](C(=O)N[C@@H](CC(=O)O)C(=O)N[C@@H](CO)C(=O)N[C@@H](Cc1ccc(O)cc1)C(=O)N[C@@H](CCCNC(=N)N)C(=O)N[C@@H](CCCCN)C(=O)N[C@H](C(=O)N[C@@H](CC(C)C)C(=O)N[C@@H](C)C(=O)N[C@@H](CCC(N)=O)C(=O)N[C@@H](CC(C)C)C(=O)N[C@@H](CCCCN)C(=O)N[C@@H](C)C(=O)N[C@@H](CCCNC(=N)N)C(=O)N[C@@H](CCC(N)=O)C(=O)N[C@@H](CC(=O)O)C(=O)N[C@H](C(=O)N[C@@H](CC(C)C)C(=O)N[C@@H](C)C(=O)N[C@@H](CCCNC(=N)N)C(=O)N[C@@H](C)C(=O)N[C@@H](C)C(=O)N[C@@H](CCCNC(=N)N)C(N)=O)[C@@H](C)CC)C(C)C)[C@@H](C)O)[C@@H](C)CC) [Trans-3-hexenoyl-YADAIFTDSYRKVLAQLKARQDILARAAR-NH2 (SEQ ID NO: 26)] | 0.13
